According to paper PMC13185593:

Tested on: HuR
Assay: SPR
Settings: SPR: 25 mM Tris pH 7.5, 100 mM KCl, 7 mM b-mercaptoethanol, 10% glycerol, 25 C, UV crosslinking: 5 mM HEPES pH 7.6, 25 mM KCl, 2 mM MgCl2, 3.8% glycerol

SARS-CoV-2 5'-UTR WT, biotin (SPR)
Kd: 32.5 nM
